The text below walks through data of publication PMC9503769, “Development and Evaluation of a Peptide Heterodimeric Tracer Targeting CXCR4 and Integrin αvβ3 for Pancreatic Cancer Imaging” (Pharmaceutics, 2022).

The format of data set [1] is physicochemical. The procedure:
^68Ga-yG5-RGD, ^68Ga-yG5, or ^68Ga-RGD (740 kBq each) were separately added to a mixture of 1.0 mL n-octanol and 1.0 mL PBS, and then the mixtures were thoroughly vortexed for 5 min. Each sample was then centrifuged at 8000 rpm for 4 min. Each sample (100 μL) in organic phase and aqueous phase was collected separately in tubes, 5 tubes for each phase. Radioactive counts per tube of samples were measured by gamma counter, and logP values were calculated by the following formula: logP = log10 (counts in n-octanol/counts in PBS).

Another data set can be described thus: in vivo. Also noted: species or system BALB/c nude mice. Conditions: female, BALB/c nude, mouse, iv, total radioactivity. The procedure: All animal studies were conducted in accordance with the guidelines of the Institutional Animal Care and Use Committee of Tongji Medical College of Huazhong University of Science and Technology (2021-S2875; 1 February 2021). Female BALB/c nude mice (5–6 weeks old) were purchased from Beijing HFK Bioscience Co., Ltd. (Beijing, China) and were raised in a specific pathogen-free barrier system. For subcutaneous tumor xenograft model, 1 × 10^7 cells of BxPC3 or MX-1 in 100 μL PBS were injected into the right flanks of nude mice. Animal models were used for follow-up experiments when tumors reached 8~10 mm in diameter. The group setting was kept consistent with PET/CT scan. Each group of mice (n = 4) was injected via tail vein with probes (5.55~7.4 MBq, 150 μL) or co-injected with probes and blockers (10 mg/kg). Mice were euthanized by cervical dislocation under anesthesia 2 h post-injection. Subsequently, tissues of interest were collected, washed, weighed, and counted by a gamma counter. After decay correction, uptake of tissues was expressed as the percentage of injected dose per gram of tissue (%ID/g).

The test system of data set [2] is BxPC3 cells. Kind of data set: Cell uptake in BxPC3 cells. In kind it is cell-based, human. To be noted: 74 kBq/well, 30 min, 1 h and 2 h, all p < 0.001, n = 3. The procedure:
(§1) BxPC3 cells in the logarithmic growth phase were harvested, counted, and seeded onto 24-well plate with 2 × 10^5 cells/well and cultured overnight. The original culture medium was discarded and fresh DMEM (serum and antibiotic-free) was then added to continue culturing for 0.5 h. Subsequently, each well was separately added ^68Ga-yG5-RGD, ^68Ga-yG5, or ^68Ga-RGD (74 kBq/well, 50 μL) and incubated for 30 min, 1 h, and 2 h (three replicate wells/each time point). At the end of incubation, the supernatant and the cell lysate were separately collected and radioactivity was measured by gamma counter. The cell uptake was expressed as the percentage of total applied radioactivity. Cell uptake study experiment was also performed using MX-1 as a control group for ^68Ga-yG5-RGD. The detailed experimental procedure was the same as above.

Data set [3] is classed as in vitro ADME, human. The method, then:
(§2) The ^68Ga-yG5-RGD (1.85 MBq, 5 μL) or ^68Ga-yG5 (1.85 MBq, 5 μL) was separately added to 300 μL of PBS or normal human fresh serum, incubated for 2 h at 37 °C. After incubation, the PBS sample was subjected to HPLC for radiochemical purity under the conditions described above. An equal volume of anhydrous acetonitrile was added to serum sample, mixed, and then centrifuged at 13,000 g for 10 min to fully precipitate protein. Following this, the supernatant was collected and authenticated by HPLC.

For data set [4], the system named is BxPC3 cells. Put plainly: Cell blocking experiment in BxPC3 cells. In kind it is cell-based, human. To be noted: co-incubated with 1000-fold molar excess of unlabeled RGD, AMD3100 or AMD3100 + RGD, all p < 0.001. The method, then:
BxPC3 was used for cell blocking experiments. One group was taken as a control and added only ^68Ga-yG5-RGD (74 kBq/well, 50 μL, 1 pmol). Other groups were incubated with the blocking agents (AMD3100, RGD, AMD3100 + RGD unlabeled, 1000 pmol/10 μL, and ^68Ga-yG5-RGD (74 kBq/well, 50 μL). The rest of the procedures were carried out as described above.

Data set [5] in a line: Stability in PBS (radio-HPLC). In kind it is physicochemical. To be noted: 1.85 MBq in 300 μL, 2 h, 37 °C. The procedure: as §2
The test system of a further data set is MX-1 cells. Kind of data set: Cell uptake in MX-1 cells (negative control). The format is cell-based, human. To be noted: all time points, all p < 0.001. The method, then: as §1

Where a SMILES comes first, the peptide text is derived from it. [ ]: non-standard residue; d: D form. The star is where a group is joined. X1 = O=C(O)CN1CCN(CC(=O)O)CC(Cc2ccc(NC(=S)*)cc2)N(CC(=O)O)CC1; 2Nal = N[C@@H](Cc1ccc2ccccc2c1)C(=O)O; dNMeK = CN[C@H](CCCCN)C(=O)O

As for `N=C(N)NCCC[C@@H]1NC(=O)[C@H](CCCCNC(=S)Nc2ccc(CC3CN(CC(=O)O)CCN(CC(=O)O)CCN3CC(=O)O)cc2)NC(=O)[C@@H](Cc2ccc(O)cc2)NC(=O)[C@H](CC(=O)O)NC(=O)CNC1=O` (some centres unmarked) [^68Ga-RGD, metal not drawn, reference compound], in data set [1], the “log P” value is listed as −3.22 ± 0.02. For the same molecule, the tissue to tissue ratio at 2 h in the data set “in vivo” (tumor/blood uptake ratio) came out at 10.8 ± 2.04; in the data set “in vivo” (tumor/kidney uptake ratio), 0.77 ± 0.06; in “in vivo” (tumor/liver uptake ratio), 0.96 ± 0.15; in “in vivo” (tumor/muscle uptake ratio), 8.61 ± 0.61.

In the case of `CN1C(=O)[C@@H](Cc2ccc(O)cc2)NC(=O)CNC(=O)[C@H](Cc2ccc3ccccc3c2)NC(=O)[C@H](CCCNC(=N)N)NC(=O)[C@H]1CCCCNC(=S)Nc1ccc(CC2CN(CC(=O)O)CCN(CC(=O)O)CCN2CC(=O)O)cc1` (some centres unmarked) [^68Ga-yG5, metal not drawn] (cyclo([2Nal]G[dY][dNMeK](X1)R)), the “log P” value in data set [1] is on record as −0.35 ± 0.09. The tissue to tissue ratio at 2 h in “in vivo” (tumor/blood uptake ratio) is 2.01 ± 0.43; in “in vivo” (tumor/kidney uptake ratio) it was 0.34 ± 0.06; in “in vivo” (tumor/liver uptake ratio), 0.13 ± 0.04; in “in vivo” (tumor/muscle uptake ratio) it was 3.86 ± 1.29.

For the molecule `CN1C(=O)[C@@H](Cc2ccc(O)cc2)NC(=O)CNC(=O)[C@H](Cc2ccc3ccccc3c2)NC(=O)[C@H](CCCNC(=N)N)NC(=O)[C@H]1CCCCNC(=O)C(CCn1nnc2c1CCC1C(CC2)C1COC(=O)NCCOCCOCCOCCOCCC(=O)NCCCC[C@@H]1NC(=O)[C@@H](Cc2ccc(O)cc2)NC(=O)[C@H](CC(=O)O)NC(=O)CNC(=O)[C@H](CCCNC(=N)N)NC1=O)N1CCN(CC(=O)O)CCN(CC(=O)O)CC1` (some centres unmarked) [^68Ga-yG5-RGD, metal not drawn], the “cellular uptake in BxPC3 cells” value in the data set with BxPC3 cells [2] was “significantly higher than that of ^68Ga-RGD and ^68Ga-yG5”. Besides, the “log P” value in data set [1] is −2.47 ± 0.04. Also, the “metabolic-free Gallium-68 observed” value in data set [3] is on record as “less than 1%”. The “cellular uptake in BxPC3 cells with blockers” value with BxPC3 cells [4] is “significantly decreased”. The “proportion of intact tracer” value in data set [5] was “greater than 99%”. Also, the tissue to tissue ratio at 2 h in the data set “in vivo” (tumor/blood uptake ratio) turned out to be 14.5 ± 0.8; in “in vivo” (tumor/kidney uptake ratio), 0.9 ± 0.29; in “in vivo” (tumor/liver uptake ratio), 0.46 ± 0.1; in “in vivo” (tumor/muscle uptake ratio), 13.6 ± 0.81. The “cellular uptake in MX-1 cells” value with MX-1 cells is “significantly lower than that of BxPC3 cells”.

As usually defined, the log P is the decadic logarithm of the partition coefficient of the neutral form, usually between octanol and water.
